B1: GcdC1, biotin carrier subunit of glutaconyl-CoA decarboxylase (Gcd) from Clostridium symbiosum (natural protein, UniProt B7TVP4 1-149, looked up)
chain: MKYIATINGKRYEVEVERVEGYKSLDRNGVAAPKAPALASTAPVQRPAAPAPAAPAPAAAPAPAAAPAPVAAPAPAAAGATTVEAPMPGKVLDVKVTAGQVVKYGDVVAIMEAMKMETEIVAPADGTVSQILVKAGDPVDTGAAMVVLN
modifications: biotin covalently bound (C-terminal region)
notes: GcdC1, biotin carrier subunit of glutaconyl-CoA decarboxylase, Clostridium symbiosum, 15 kDa; N-terminal region of 30 amino acids, AP region of 48, C-terminal region of 71; Surmised: its biotin is what the monomeric avidin column holds
B2: GcdC2, biotin carrier subunit of glutaconyl-CoA decarboxylase (Gcd) from Clostridium symbiosum (natural protein, UniProt B7TVP3 1-139, looked up)
chain: MKYTATLNGKQYDVELERIGEYEPIPRYGEAAPAPAAPITAPAAAPAPVAAAPAPAPAPAAPAPAPAAGGTTVEAPMPGKVLDVKVAAGQAVKFGQVVITMEAMKMETEIVAPADGTVAQILVKAGDAVETGTAMVVLN
modifications: biotin covalently bound (C-terminal region)
notes: GcdC2, biotin carrier subunit of glutaconyl-CoA decarboxylase, Clostridium symbiosum, 14 kDa; N-terminal region of 30 amino acids, AP region of 39, C-terminal region of 70; Surmised: its biotin is what the monomeric avidin column holds
B3: GcdA, subunit of glutaconyl-CoA decarboxylase (Gcd) from Clostridium symbiosum (enzyme, UniProt B7TVP1 1-588, looked up)
chain: MNMYSMPGYFQNMPTIGKELVNPNPENEQEIKAVESDIHESIKKALDAGITSEEKLNERGQLSAMQRINALIDPGTWCPLNSLFNPENNKFGTTNIVNGLGRVDGKWVYIVASDNKKMAGAWVPGQAENLIRCSDAAKMMHLPLIYLLNCSGVEFPNQDKVYPNRRGGGTPFFRNSELNQLGIPVIVGIYGTNPAGGGYHSISPTILIAHQDANMAVGGAGILSGMNPKGYIDDEAAEQIIAAQIENSKLKVPAPGSVPIHYDETGFFREVYQNDLGVIDGIKKYISYLPAYNLEFFRVDTPKAPQLPAEDLYSIIPMNQKRPYDIYEVIARLFDNSEFSEYKKGYGPEMVTGLAKVNGLLVGVIANVQGLLMNYPEYKQNSVGIGGKLYRQGLIKMNEFVTLCARDRIPLIWLQDTTGIDVGDEAEKAELLGLGQSLIYSIENSKLPSLEITIRKASAAAHYVLGGPQGNNTNVFSIGTGACEYYVMPGETAANAMYSRKLVKAKKAGEDLQPIIGKMNDMIQMYTDKSRPKYCTEKGMVDEIVDMTEVRPYIQAFTEAAYQNPQSICPMHQMLTPRSTREFETFGK
notes: GcdA, hydrophilic carboxyltransferase subunit of glutaconyl-CoA decarboxylase, Clostridium symbiosum, 65 kDa; For LILBID-MS (soft mode) and EM the complex was cross-linked with glutaraldehyde (GraFix)

Series [1] addresses T1, Gcd (glutaconyl-CoA decarboxylase) from Clostridium symbiosum ([Clostridium] symbiosum, UniProt B7TVP1).
T1 construct: gene gcdA
The series is described as follows: coupled spectrophotometric assay of crotonyl-CoA formation, […] nm. Format: biochemical. The following applies: decarboxylation to crotonyl-CoA; biotin-dependent, biotin covalently bound to GcdC1/GcdC2; DDM-solubilized enzyme.

Series [2] addresses B3. Put plainly: affinity purification with mass spectrometry; Gcd solubilized from C. symbiosum membranes with 2% DDM in buffer A (50 mM phosphate pH 7.0, 400 mM NaCl, 0.05% DDM), loaded on monomeric avidin agarose, eluted with a biotin step gradient (0-2 mM); bands of SDS-PAGE identified by MALDI-TOF MS. The following applies: partners not purified.
Series [3] concerns the target B3. The series is described as follows: native MS; LILBID-MS, soft detection mode (14 mJ laser power); 3-7 uM glutaraldehyde-fixed and unconcentrated Gcd complex in 50 mM Tris-HCl pH 7.0, 0.05% DDM, 200 mM NaCl. The following applies: both partners purified.
Series [4] deals with B1. The description is as above. The following applies: both partners purified.
Series [5] deals with the molecule itself. The description is as above.
Series [6] deals with the molecule itself. Put plainly: negative-stain electron microscopy, 3D reconstruction; glutaraldehyde-fixed Gcd (50-80 nM) at 200 mM NaCl, stained with 2% uranyl formate; 2D classification and low-resolution 3D map (cisTEM, RELION-3.0).
Series [7] addresses B2. Put plainly: native MS; LILBID-MS, soft detection mode (14 mJ laser power); 3-7 uM glutaraldehyde-fixed and unconcentrated Gcd complex in 50 mM Tris-HCl pH 7.0, 0.05% DDM, 200 mM NaCl. The following applies: both partners purified.
In series [8] the target is B1. The series is described as follows: affinity purification with mass spectrometry; Gcd solubilized from C. symbiosum membranes with 2% DDM in buffer A (50 mM phosphate pH 7.0, 400 mM NaCl, 0.05% DDM), loaded on monomeric avidin agarose, eluted with a biotin step gradient (0-2 mM); bands of SDS-PAGE identified by MALDI-TOF MS. The following applies: partners not purified.

Several values for one entry are separate records, joined by “and”; a condition that tells them apart may be missing. Equal values may be shown once.

With `CC(C)(COP(=O)(O)OP(=O)(O)OC[C@H]1O[C@@H](n2cnc3c(N)ncnc32)[C@H](O)[C@@H]1OP(=O)(O)O)[C@@H](O)C(=O)NCCC(=O)NCCSC(=O)/C=C/CC(=O)O` [glutaconyl-CoA], the “coupled spectrophotometric assay of crotonyl-CoA formation, 340 nm” value in series [1] is on record as “Purified Gcd was enzymatically active with respect to crotonyl-CoA formation”.

Regarding B1, in series [2], the binding result is listed as “binds”.

For the molecule B2, the binding result in series [3] and in series [4] was “binds” throughout.

B3: the stoichiometry N (commonly a count of units in the complex or per binding partner) is 4 and 2 in series [5]; roughly 4 in series [6].

B4: GcdD, small subunit of glutaconyl-CoA decarboxylase (Gcd) from Clostridium symbiosum (natural protein, UniProt B7TVP2 1-95, looked up)
chain: MWTEATMPFGQSVIVSLLGISVVFITLVTLALAIVLISKILRSIIKDGAQKPAPAAAPVVSDEADKETLAVLMATIGMDLELPADQFKIVNVKEL
notes: GcdD, small subunit of glutaconyl-CoA decarboxylase, Clostridium symbiosum, 10 kDa; N-terminal transmembrane helix (13-37), AP-rich region (51-60), C-terminal region (61-95)
Consider B4, for which the binding result in series [7] and in series [8] was “binds” throughout.

B5: GcdB, subunit of glutaconyl-CoA decarboxylase (Gcd) from Clostridium symbiosum (enzyme, UniProt B7TVP5 1-379, looked up)
chain: MNFFEIMGEMLAQSGFTALTWKNLVMFAISFVLLYMAIKKQYEPLLLLPIAFGMFLANLPLADLMKESEPWYTQGVLRIMYGGVKSSLFPCLIFLCVGAMTDFGPLIANPISLLLGAAAQFGIYIAFMLANATGLFTVGEAAAIGIIGGADGPTAIYIANNLAPDLVAPIAVAAYSYMALIPMIQPPIMKLLTTKKERAIVMKQLRKVSKVEKVVFPVFVVLFCSLLLPSVAPLLGMLMLGNLFRESGVVERLSDTAQNALCNIVTIMLGTTVGATANGDIFLRVQTIAIIAMGLMAFCFSTVGGVLLGKLLCVVTGGKINPLIGSAGVSAVPMAARVSQTVGSKENPTNFLLMHAMGPNVAGVIGSAVAAGFFMLIFK
notes: GcdB, membrane-spanning subunit (11 putative transmembrane helices) of glutaconyl-CoA decarboxylase, Clostridium symbiosum, 35 kDa (39 kDa in the introduction)
For the molecule B5, the “stoichiometry N” value in series [6] worked out at 2.
